Data taken from publication PMC3792999, “Identification and Characterization of a Cold-Active Phthalate Esters Hydrolase by Screening a Metagenomic Library Derived from Biofilms of a Wastewater Treatment Plant” (PLoS ONE, 2013).

Tests used:
Test in all cases: purified protein
[1] = system: CCCCOC(=O)c1ccccc1C(=O)OCCCC
[2] = system: CCCOC(=O)c1ccccc1C(=O)OCCC; settings: pH 7.5; 10.0 °C
[3] = system: CCCCCOC(=O)c1ccccc1C(=O)OCCCCC; settings: pH 7.5; 10.0 °C
[4] = 10 mM sodium phosphate pH 7.5, 10°C

Substance	Km [1, 4] [µM]	kcat [1, 4] [s⁻¹]	Km ([1]; pH 7.5, 10.0 °C) [µM]	Vmax ([1]; pH 7.5, 10.0 °C) [µmol/min/mg]	kcat/Km ([1]; pH 7.5, 10.0 °C) [M⁻¹ s⁻¹]	Km [2] [µM]	Vmax [2] [µmol/min/mg]	kcat/Km [2] [M⁻¹ s⁻¹]	Km [3] [µM]	Vmax [3] [µmol/min/mg]	kcat/Km [3] [M⁻¹ s⁻¹]
DphB (uncultured bacterium; D255A)	20300 ± 1170	6.95 ± 1.42									
DphB (uncultured bacterium)			561 ± 16	40.7	70000 ± 2000	271 ± 12	46.4	166000 ± 5000	378 ± 18	45.9	118000 ± 4000
